Results: the domain aggregation screens of Martell et al. (2025)

Experiment: soluble fraction after stress (log2 fold change); higher = more stays soluble; pooled small domains, quantitative proteomics
Conditions: stress: 75 degC
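Also: 20 min heating vs room temperature control held 20 min.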

Sequence | soluble fraction (log2)
HMNKFADLAGNIIYNENGVEVFNFGKYKGQPVAEVFKKDIGYYGWIQNADFPRYTKKVFTAIQLKSK | -1.28
HMRYTAAEMAKKLDISRSYLYYLKEAGVVEIEKNENGKPIWTESVYNQLFEYIKKNHRTEEADNTQ | -0.805
HMPRFDINFKVGEVVTIKGGSFDGQQGEISEIDHEHGKIKVMLEVLGRLTPVEVEHTEIEKI | -0.269
HMDRYVDEEKRFYWRSGEAYLNFSKYKDRSLAEVATVDPGFLRWMMEADFSPETKQIVERALEGEFPQKK | -0.29
HMIYKLIADRLKNRINSDEFEVGDALPSEKALAGELEVSVMTIRKALTLLESEKLIVKRHGSGSYVARKSN | -1.77
HMVTINTASLEKAIADAKAVVKESYTTDSYNAMKAVLDEAEDLLKEEAQDQDTIDAKTEALNAAIEALVKR | 0.166
HMTILKEGMSGPEVERLQDALKRHGFDPGRVDGQFGPGTEAAILAFQKSEGLRADGVAGPKTQQALGLE | 0.121
HMKMQIGEIIRKYRKSNHMTQEEMAERLGVSAPAVNKWENGNSMPDIMLLAPITRLLGISLDELLSFE | -2.26
HMLLGPDALTNRELDVLALLERRLSNKEIGALLYISPRTVKRHTINIYQKLHVNNRRAAVAQAKALGLMPD | -1.9
HMDGDFGMNLDWQPSEHFPTLARQAGIPADHITAEAIAEFRSYWIGQGKAMTQYQWDHKLLTNLKATKTR | -1.19
HMKKYISEEQAKQAALETAGGGSVVKIKFTTDDGIKVYEIDIINGNYEYEITVHAETGKILDVDKERIH | -1.6
HMGVGTTDERLAVLNQIASRQTEALEKLGPNNPLVGLGQIRNTLSKMLEISGYPDSNQFFKQVPLDYEPPP | 0.156
HMRILGIDPGSVVTGYGVIDKSGNYLRHVLHGEIKPHKGYLLSEVLMDIFSKLSAVIVETNPQSV | 0.271
HMAWIGEHTVTSEDTLSHIALKFYGHATPPYYKLIYEANKAIIGDNMNIIVPGQVLRIPALPEEL | -1.35
HMQPLRQGDFVTSEVVKVQDGTAVLRTAQGTLLSASLTGNLGLLPGDRVETVVVEASPGRFVLRVLDIIR | -0.747
HMEFDFGAILSGNGGSELYSGYSAEQKAALVEAAKADGMDVEFGADGSTTFKDKDGSEVVQKADGTWTV | 0.235
HMKSLLTHAEEFVRNNNGRWMLAETSSKESYSSKQNFYLRNNYSIISEIRDFYSVGDNLLVFGKFFT | 0.201
HMSDNHYLLEIFLADLKSDEKFIRELAIFQLHHHIESDKVRAELKAAAETESDPYLKGMIESLLSSTS | -1.53
HMPGRLSRREVEVIELTARGLPAAEMAVRLGISANTIEFHRRRIMQKLGVANAAEMVRRATELGW | -2.28

Sequence | soluble fraction (log2)
HMGHLSNENAGRLLDRVLNDKIHAIMLGHLSKENNMPELAHEAVRMEITMGESRYKADDFPIYVA | -0.0465
HMGTVRFYNKERGFGFVVSDDGESVFLPAKALPDGVSDLSPGTRVDYGAALGKKGSQ | 0.0973
HMRINIVKSKNAEQLYIIHSYRINGKNTSKIYKKLGTMADLLPLHNHDRDQVLAWAKEQARLATEQYDQEN | -2.79
HMPVGVPGVVYNTDSLNVRKGAGTNYDIVSKLKRGSVIEVLEQTAVDGTVWGRIAEGWVNMEYVSL | -1.04
HMPSIGKNILYYRKKRNMTIDELSKKSGVSKSMLSQVEQEKTNPTVVTVWKIARSLDVSINQLLQT | -2.83
HMENVIYGINGPVVTVRNSRSFSMMEMVFVGNERLVGEVIGITDKITTIQVYEETTGLRPGEPVYGTGSPM | -3.8
HMQQLTDRELEVLRLLAAGLSNNKIGEKLYISATTAKFHVSNIMRKLEVSRRAEAVYAASKRGL | -2.26
HMDIGNKIKELRTEQKMTQSDLAERLGVTKSSISSYENGSRLPSYDILLKIARIFKVSTDILLG | -1.47
HMSTLTLTSGTYAVGENIKAGKYTIMGSGSIAISSSGKARVNSNLTADRKDYVLNDDETIKIKGKAQFIPI | -0.315
HMDDATDVPYQEFRTQVTSGQVEIAQFNNNTGKISFQSTSGEKFETSGPLELSSDDERLFLENIEDFKFFT | 0.416
HMKKKVDSENLLLDILKQMQPQASTNVLRKMLTNQRISVDDQIIHRAKHVVQEGQTVEIHPKP | -0.0451
HMGLSAALKARLREVINEMAKSGAQPKLREWALAEGIGNFAKPETPEAAEAVIAKAQELLAEA | 0.543
HMEDWTPERFVGAFVSGGPALRDEILLAATKDLSHAQATRLLKLAEARGLVHRSQPGPSERVRFVVARK | -0.518
HMNKEIEDYVATYSSMKAKEAAAIFDTMTSDLDLVAKILEAMSADDRAKILEQMNEENAARLTKMMD | 0.0551
HMLERKFGTSLEIKSLSKFLIENNYKKNAKYLNKLIQVLGTRSENRIIKTFFKQFPEIENIFRNQL | -0.612
HMPIRVGDAFESLAGVFPDEYNKALRKSTKKPVFFVPVKVEAGSGALRQKGKITFIVKDGRIDAIQIAL | -1.41
HMQKLNIEEQIVYDIIFKNKELSANEIQIKSGIKTSILNALLINLEIKQYIKLKFGNFYEIK | 0.181
HMNTSMIEHMDKSTFIRFVFTNPVTHDQAVAKLMEKHMWFSTEEKAEAEIDKLLNKTNSLIESGGKLTW | 0.0867
HMGLSASVIQMFADLGYTSEGRSTKEMITDYQIDHSIIKNSTEDGAGTYGPRTKASLSTVHAQYI | -0.0653
